{"source": "patent US20140065154A1", "about": "“TLR3 BINDING AGENTS” (INNATE PHARMA, priority 2011, published 2014)", "key": {"TLR3 [1]": {"molecular_target": "T1, TLR3 (Homo sapiens, UniProt O15455)", "assay": "SPR (Biacore) bivalent affinity on immobilized TLR3", "format": "binding", "parameters": "purchased R&D Systems", "conditions": "neutral pH; own vs commercially available antibodies", "experimental": "(a) General Biacore T100 methods. SPR measurements were performed on a Biacore T100 apparatus (Biacore GE Healthcare) at 25° C. In all Biacore experiments HBS-EP+ buffer (Biacore GE Healthcare) or 10 mM sodium acetate pH 5.6, 150 mM NaCl, 0.05% P20 served as running buffer and sensorgrams were analyzed with Biaevaluation 4.1 and Biacore T100 Evaluation software. Recombinant human and mouse TLR3 were purchased from R&D Systems. (b) Protein immobilization. Recombinant TLR3 protein was immobilized covalently to carboxyl groups in the dextran layer of a Biacore Series 5 Sensor Chip CM5 (chip). The chip surface was activated with EDC/NHS (0.2M N-ethyl-N′-(3-dimethylaminopropyl) carbodiimidehydrochloride, 0.05M N-hydroxysuccinimide (Biacore GE Healthcare)). […] Deactivation of the remaining activated groups was performed using 100 mM ethanolamine pH 8 (Biacore GE Healthcare). (c) Antibody binding analysis was run using HBS-EP+ (neutral pH). Antibodies at a concentration of 10 μg/ml were injected for 2 min at a constant flow rate of 10 μl/min over the immobilized proteins and allowed to dissociate for 3 min before regeneration by a ten second injection of 10 mM NaOH, 500 mM NaCl regeneration buffer. […]\nBinding to TLR3 was determined at neutral (pH 7.2) and acid (pH 5.6) conditions, and KD values were calculated. […]"}, "TLR3 [2]": {"molecular_target": "T1, TLR3", "assay": "SPR competition assay with polyAU in acidic buffer", "format": "binding", "parameters": "purchased R&D Systems", "conditions": "pH 5.6", "experimental": "(a) General Biacore T100 methods. SPR measurements were performed on a Biacore T100 apparatus (Biacore GE Healthcare) at 25° C. In all Biacore experiments HBS-EP+ buffer (Biacore GE Healthcare) or 10 mM sodium acetate pH 5.6, 150 mM NaCl, 0.05% P20 served as running buffer and sensorgrams were analyzed with Biaevaluation 4.1 and Biacore T100 Evaluation software. Recombinant human and mouse TLR3 were purchased from R&D Systems. (b) Protein immobilization. Recombinant TLR3 protein was immobilized covalently to carboxyl groups in the dextran layer of a Biacore Series 5 Sensor Chip CM5 (chip). The chip surface was activated with EDC/NHS (0.2M N-ethyl-N′-(3-dimethylaminopropyl) carbodiimidehydrochloride, 0.05M N-hydroxysuccinimide (Biacore GE Healthcare)). […] Deactivation of the remaining activated groups was performed using 100 mM ethanolamine pH 8 (Biacore GE Healthcare). (c) Antibody binding analysis was run using HBS-EP+ (neutral pH). Antibodies at a concentration of 10 μg/ml were injected for 2 min at a constant flow rate of 10 μl/min over the immobilized proteins and allowed to dissociate for 3 min before regeneration by a ten second injection of 10 mM NaOH, 500 mM NaCl regeneration buffer. Blank correction was performed on line by co-injecting the soluble antibodies onto the reference dextran flow cell. (d) Competition assay in acidic buffer (pH 5.6). Flow rate was set to 10 μl/min, the first antibody at a concentration of 50 μg/ml (or polyAU at 100 μg/ml) was injected for 2 min, 3 times successively in order to saturate the rhTLR3 surface. The second antibody (or polyAU at 100 μg/ml when the polyAU was added after first antibody) was then injected for 2 min also at 50 μg/ml and allowed to dissociate for 3 min before regeneration by a 15 second injection of 10 mM NaOH, 500 mM NaCl regeneration buffer. Blank correction was also performed on line and the curve using the saturating antibody (or neucleic acid) followed by an injection of buffer subtracted to remove the signal due to the dissociation of the first complex. The resulting signal was compared to that obtained by the injection of the second antibody directly onto the rhTLR3 surface.\nCompetition assays were conducted according to the methods described for SPR, item d) at pH 5.6.\nBuffer (followed by polyAU) is represented in the lower line, while 31C3 followed by polyAU is in the upper line."}, "TLR3 [3]": {"molecular_target": "T1, TLR3", "assay": "Myeloid DC (MdDC) secretion and expression inhibition test", "format": "cell-based", "parameters": "Myeloid DC (MdDC) were obtained from PBMC by isolating PBMC from normal healthy human donors; endogenous in cells; host or cells: human monocyte-derived DC (CD14+ monocytes cultured with GM-CSF and IL-4)", "conditions": "polyAU", "experimental": "Myeloid DC (MdDC) were obtained from PBMC by isolating PBMC from normal healthy human donors. Monocytes were purified from PBMC using positive selection with human CD14 microbeads (Miltenyi Biotech) following general instructions. Monocytes were further derived into DC (MdDC) by 5-6 days incubation in human GM-CSF (Leucomax, SP) and human IL-4 (R&D Systems) at respectively 200 ng/ml and 20 ng/ml.\nThe resulting MdDC were then seeded at 10^6 cells/ml, in duplicate, in flat bottom 96-well plates. Cells were activated for 20 hours in a final volume of 200 μl, together with the anti-TLR3 antibodies at the indicated concentrations. Increasing amounts of polyAU were added to the wells to obtain a dose effect read-out at the dose and timepoint as indicated.\nSupernatants were collected after 20 h of stimulation, frozen at −20° C., and further assayed for IL-6 and IP-10 using Enzyme-linked immunosorbent assay. Cells were then harvested, stained for activation markers CD86 (with a.huCD86 mouse, IgG1, FITC, BD Biosciences, ref 555657), with detection using FACSCanto™ flow cytometer (BD Biosciences).\nMyeloid DC (MdDC) secretion inhibition test is performed according to the section titled Materials and Methods."}, "[4]": {"molecular_target": "T2, recombinant human TLR3 extracellular domain (R&D Systems) (human, UniProt O15455 27-711)", "T2 construct": "also called rhTLR3; human rec TLR3; not shown: His tag (R&D #1487-TR)", "assay": "SPR (Biacore T100), rhTLR3 immobilised on CM5 chip, bivalent affinity, pH 5.6, mean of 2 or 3 experiments"}, "[5]": {"molecular_target": "T2, recombinant human TLR3 extracellular …", "assay": "SPR (Biacore T100), rhTLR3 immobilised on CM5 chip, bivalent affinity, pH 7.2, mean of 2 or 3 experiments", "quoted_text": "(a) General Biacore T100 methods. SPR measurements were performed on a Biacore T100 apparatus (Biacore GE Healthcare) at 25° C. In all Biacore experiments HBS-EP+ buffer (Biacore GE Healthcare) or 10 mM sodium acetate pH 5.6, 150 mM NaCl, 0.05% P20 served as running buffer and sensorgrams were analyzed with Biaevaluation 4.1 and Biacore T100 Evaluation software. Recombinant human and mouse TLR3 were purchased from R&D Systems. (b) Protein immobilization. Recombinant TLR3 protein was immobilized covalently to carboxyl groups in the dextran layer of a Biacore Series 5 Sensor Chip CM5 (chip). The chip surface was activated with EDC/NHS (0.2M N-ethyl-N′-(3-dimethylaminopropyl) carbodiimidehydrochloride, 0.05M N-hydroxysuccinimide (Biacore GE Healthcare)). […] Deactivation of the remaining activated groups was performed using 100 mM ethanolamine pH 8 (Biacore GE Healthcare). (c) Antibody binding analysis was run using HBS-EP+ (neutral pH). Antibodies at a concentration of 10 μg/ml were injected for 2 min at a constant flow rate of 10 μl/min over the immobilized proteins and allowed to dissociate for 3 min before regeneration by a ten second injection of 10 mM NaOH, 500 mM NaCl regeneration buffer. Blank correction was performed on line by co-injecting the soluble antibodies onto the reference dextran flow cell. (d) Competition assay in acidic buffer (pH 5.6). […]"}, "TLR3 [6]": {"molecular_target": "T1, TLR3", "assay": "293T-TLR3-ISRE luciferase reporter gene assay", "format": "cell-based", "parameters": "host or cells: 293T (ATCC #CRL-1573), stably carrying pISRE-luc", "conditions": "dsRNA TLR3 agonist", "from_the_text": "A reporter gene assay using as promoter ISRE (IFN-stimulated response element) and as reporter gene and protein luciferase was set up. A 293T cell line (ATCC, #CRL-1573) was stably transfected with pISRE-luc plasmid (#219089—Stratagene), further selected by cloning as inducing optimal response to IFN-alpha stimulation and referred to as control 293T-ISRE. This cell line was further stably transfected with pUNO-humanTLR3 plasmid (#puno-htlr3—InVivogen) or pUNO-mouseTLR3 plasmid (#puno-mtlr3—InVivogen) and referred to as 293T-TLR3-ISRE and 293T-mTLR3-ISRE respectively. On day 0, cells are seeded at 4×10^5 cells/mL in complete culture medium in 96-well culture plate (100 μl/well). Cells are first incubated at 37° C. for 20 hours, then 50 μL of medium are discarded and cells are activated with 100 μL/well final of increasing amounts of polyAU together with various concentrations of anti-TLR3 antibodies. Cells incubated with fresh medium will be used as background luciferase activity. Cells are incubated at 37° C. for 6 hours. 100 μL of freshly thawed Steady Glo (Promega) are added to each well, plates were incubated 10 min at RT in the dark and the light emitted in each well is quantified as Count Per Second (CPS) on a gamma-counter (TopCount) apparatus.\nAntibodies were tested for inhibition of TLR3 signaling in a luciferase based reporter gene activity (293T-TLR3-ISRE). […] Briefly, dsRNA TLR3 agonists were used to induce TLR3 signaling in the reporter assay in the presence of anti-TLR3 antibodies, and TLR3 signaling was assessed.\nIn a further set of experiments, 293-huTLR3 cells were incubated with different concentrations of the anti-TLR3 mAbs for 1 to 2 hours (see FIG. 1A; mAb concentration is represented in axis in μg/ml on a logarithmic scale) followed by the addition to the medium of the TLR3 agonist polyAU at a concentration of 300 μg/ml. Luciferase expression was measured after 6 h. […]\nSimilarly the kinetics of inhibition of the antibodies was evaluated in 293T-TLR3 luciferase assay. […] Luciferase expression was measured at 6 h post poly(A:U) addition. […]"}, "TLR3 [7]": {"molecular_target": "T1, TLR3", "assay": "IP-10 production by donor PBMC in response to dsRNA and drug combinations", "format": "cell-based", "conditions": "mAb 50 μg/ml", "experimental": "IP-10 production was assessed in human donors in response to polyAU (IPH3102), believed to be a specific agonist of TLR3, or pIC, believed to be an agonist of TLR3 as well as other dsRNA receptors such as RIG-I and MDA-5. Fresh PBMC were isolated from whole blood of two independent donors. […] Cells were incubated 1 hr at 37° C. prior addition of 300 μg/ml IPH3102 or 30 μg/ml poly(I:C). Cells were incubated for 24 additional hours at 37° C. Supernatant were then harvested to quantify IP10 production by ELISA. Cells were then recovered, stained with 7-AAD and analyzed by flow cytometry (FACS) to evaluate potential toxic effects of any drugs."}}, "note": "Entries after “also recorded” stand apart in the source; their conditions may differ.", "data": [{"molecule": "29H3: anti-human TLR3 monoclonal antibody, IgG1; VH SEQ ID NO: 10, VL SEQ ID NO: 11; CNCM I-4187 (antibody, listed as Mus musculus, V domains shown, SIGNAL (1)..(18); SIGNAL (1)..(20), anti-human TLR3 monoclonal antibody, IgG1; CNCM I-4187) VH: MRVLILLCLFTAFPGILSDVQLQESGPDLVKPSQSLSLTCTVTGYSITSGYSWHWIRQFLGNKLEWMGYIHYSGITNYNPSLRSRISFTRDTSKNQFFLQLNSVTTEDTATYYCARDGYYGMDYWGQGTSVTVS VL: MDFQTQVFVFVLLWLSGVDGDIVMTQSQKFMSTSVGDRVSITCKASQNVRTSVAWYQQKPGQSPKALIYLASNRHTGVPDRFTGSGSGTDFTLTVSNIQSEDLADYFCLQHWNYPYTFGGGTKLEIK", "values": [{"measurement": "binding affinity for TLR3 compared", "setting": "TLR3 [1]", "value": "significantly better"}, {"measurement": "antibody binding to TLR3 chip previously incubated with polyAU", "setting": "TLR3 [2]", "value": "able to bind TLR3 even in the presence of polyAU"}, {"measurement": "TLR3-mediated CD83/CD86 expression", "setting": "TLR3 [3]", "value": "effectively downregulated TLR3-mediated CD83/CD86 expression"}, {"measurement": "TLR3-mediated cytokine/chemokine secretion (IP-10, IL-6)", "setting": "TLR3 [3]", "value": "abrogated TLR3-mediated cytokine/chemokine secretion"}]}, {"molecule": "antibody 29H3 (antibody, V domains shown, also called 29H3.7; CNCM I-4187) VH: DVQLQESGPDLVKPSQSLSLTCTVTGYSITSGYSWHWIRQFLGNKLEWMGYIHYSGITNYNPSLRSRISFTRDTSKNQFFLQLNSVTTEDTATYYCARDGYYGMDYWGQGTSVTVS VL: DIVMTQSQKFMSTSVGDRVSITCKASQNVRTSVAWYQQKPGQSPKALIYLASNRHTGVPDRFTGSGSGTDFTLTVSNIQSEDLADYFCLQHWNYPYTFGGGTKLEIK", "values": [{"measurement": "TLR3-mediated CD83/CD86 expression", "setting": "TLR3 [3]", "value": "effectively downregulated TLR3-mediated CD83/CD86 expression"}, {"measurement": "TLR3-mediated cytokine/chemokine secretion (IP-10, IL-6)", "setting": "TLR3 [3]", "value": "abrogated TLR3-mediated cytokine/chemokine secretion, to a similar extent as full length antibodies"}, {"measurement": "Kd", "setting": "[4]", "value": 0.011, "unit": "nM"}, {"measurement": "Kd", "setting": "[5]", "value": 0.0474, "unit": "nM"}]}, {"molecule": "34A3: anti-human TLR3 monoclonal antibody; VH SEQ ID NO: 34, VL SEQ ID NO: 35 (antibody, listed as Mus musculus, V domains shown, SIGNAL (1)..(19); SIGNAL (1)..(22)) VH: MEWRWIFLFLLSGTTGVHSEIQLQQSGPELVKPGASVKVSCKASGYVFTTYSIYWVKQSHGKSLEWIGYIDPYNGDTSYNQKFKGKATLTVDKSSSTAYMHLNSLTSEDSTVYYCAREGNYYGYFDYWGQGTTLTVS VL: MDFQVQIFSFLLMSASVIMSRGQIVLTQSPALMSASPGEKVTMTCSASSSVSYMFWYQQKPRSSPKPWIYLTSNLASGVPARFSGSGSGTSYSLTISSMEAEDAATYYCQQWTGNPPTFGGGTKLEIK", "values": [{"measurement": "inhibition of TLR3 signaling", "setting": "TLR3 [6]", "value": "strongly inhibited TLR3 signaling in a dose dependent fashion; also recorded: enhanced inhibition effect at low concentrations"}, {"measurement": "antibody binding to TLR3 chip previously incubated with polyAU", "setting": "TLR3 [2]", "value": "able to bind TLR3 even in the presence of polyAU"}, {"measurement": "IP-10 production in response to polyAU", "setting": "TLR3 [7]; donor 2, IPH3102 300 μg/ml", "value": "substantially reduce IP-10 production"}, {"measurement": "IP-10 production in response to polyIC", "setting": "TLR3 [7]; donors 1 and 2, poly(I:C) 30 μg/ml", "value": "substantially reduce IP-10 production"}]}]}
